# Assay results reported in doi:10.1101/2023.07.15.549169.
# Experiments:
# SMAD4 WT;SMAD3 P124S = test: TR-FRET
# SMAD4 R100T;SMAD3 WT = test: TR-FRET
substance,measurement,setting,value
5'-FAM-SBE4,binding signal (% of WT PDI signal),SMAD4 WT;SMAD3 P124S,25
same,binding signal (% of WT PDI signal),SMAD4 R100T;SMAD3 WT,25
